In patent publication US20230414796A1, “COMBINATION OF PARA-AMINOHIPPURIC ACID (PAH) AND RADIOLABELED COMPLEXES FOR TREATING CANCER” (priority 2020, published 2023):

Columns and labels:
[1] = Example 2: body weight of AR42J xenograft SWISS mice; design: species or system SWISS nude mice; conditions: mouse, in vivo
Description: 10 min prior to dosing of ^177Lu-DOTATOC, mice of groups 1 and 2 were injected intraperitoneally with 50 μL saline or PAH, respectively.
Body weight and tumor volume were evaluated every two to three days for a period of 46 days after treatment (or until the tumor size limit was reached). The tumor volume was determined by measuring the length, the width and the depth of the tumor with a digital caliper. Tumor volume was calculated by using the following formula: […]
The mice were monitored until the individual tumor size reached 1500 mm^3. When this experimental endpoint was reached or after a 46 days period following treatment, mice were euthanized. Mean tumor volume and body weight of AR42J xenograft SWISS mice were calculated for each treatment group throughout the duration of the study.

[2] = Example 1: body weight of AR42J xenograft CD1 nude mice; conditions: mouse, in vivo
Description: Body weight and tumor volume were evaluated every two to three days for a period of 57 days after treatment (or until the tumor size limit was reached). The tumor volume was determined by measuring the length, the width and the depth of the tumor with a digital caliper. Tumor volume was calculated by using the following formula: […]
The mice were monitored until the individual tumor size reached 1500 mm^3. When this experimental endpoint was reached or after a 57 days period following treatment, mice were euthanized. Mean tumor volume and body weight of AR42J xenograft CD1 nude mice were calculated for each treatment group throughout the duration of the study.

## C[C@@H](O)[C@@H]1NC(=O)[C@H](CCCCN)NC(=O)[C@@H](Cc2c[nH]c3ccccc23)NC(=O)[C@H](Cc2ccc(O)cc2)NC(=O)[C@@H](NC(=O)[C@@H](Cc2ccccc2)NC(=O)CN2CCN(CC(=O)O)CCN(CC(=O)O)CCN(CC(=O)O)CC2)CSSC[C@@H](C(=O)N[C@H](CO)[C@@H](C)O)NC1=O [^177Lu-DOTATOC, ^177Lu-DOTA-D-Phe-cyclo(Cys-Tyr-D-Trp-Lys-Thr-Cys]-Thr(ol), metal not drawn]
[1]
  average weight increase compared to tumor-bearing control mice: increased slightly more slowly
  physical appearance throughout the study period: maintained a healthy physical appearance
  radiotoxicity (suggested by body weight): low radiotoxicity
[2]
  average weight change compared to untreated tumor-bearing control mice: increased similarly
  physical appearance throughout the study period: maintained a healthy physical appearance
